Laboratory results reported in patent US7618787B2, “Method of screening compound capable of accelerating or inhibiting apoptosis, apoptosis accelarator and apoptosis inhibitor” (Hisamitsu Pharmaceutical Co., Inc., priority 2004, dated 2009).

Key:
p73 = molecular target: T1, p73 (Homo sapiens, UniProt O15350); experiment: Co-immunoprecipitation with p73 in transfected COS7 cells; assay type: binding; conditions: COS7, co-immunoprecipitation (FIG. 10, FIG. 28)
T1 construct: expressed in transfected cells; host or cells: COS7
T1 sequence (O15350 1-636): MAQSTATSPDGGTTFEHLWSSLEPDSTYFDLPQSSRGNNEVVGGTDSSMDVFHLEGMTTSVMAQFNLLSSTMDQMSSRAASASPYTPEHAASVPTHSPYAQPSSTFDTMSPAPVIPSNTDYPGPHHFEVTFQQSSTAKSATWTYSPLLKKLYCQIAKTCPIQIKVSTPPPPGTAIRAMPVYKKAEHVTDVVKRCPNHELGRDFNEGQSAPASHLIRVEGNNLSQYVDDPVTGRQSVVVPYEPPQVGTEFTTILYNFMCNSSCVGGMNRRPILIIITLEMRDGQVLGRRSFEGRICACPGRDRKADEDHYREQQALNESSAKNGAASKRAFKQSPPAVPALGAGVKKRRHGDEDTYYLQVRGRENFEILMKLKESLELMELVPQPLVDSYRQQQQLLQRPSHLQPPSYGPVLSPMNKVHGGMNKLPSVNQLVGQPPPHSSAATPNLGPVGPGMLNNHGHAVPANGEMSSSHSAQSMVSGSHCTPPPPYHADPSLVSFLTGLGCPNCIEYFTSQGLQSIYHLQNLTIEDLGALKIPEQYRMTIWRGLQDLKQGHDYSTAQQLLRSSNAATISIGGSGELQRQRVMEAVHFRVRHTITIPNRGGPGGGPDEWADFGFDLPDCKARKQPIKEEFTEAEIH
Protocol: Whole cell lysates were centrifuged at 15000 rpm for 15 minutes to remove cell debris. The obtained supernatant was pretreated at 4° C. for 30 minutes with protein G-Sepharose (50% slurry, 30 μL; Amersham Pharmacia Biotech). After centrifugation, the supernatant was incubated at 4° C. for 2 hours with an anti-HA polyclonal (Medical and Biological Laboratories) or anti-FLAG monoclonal antibody. The immunocomplexes were precipitated at 4° C. for 30 minutes with protein G-Sepharose beads. After collection by brief centrifugation, the immunoprecipitates were washed three times with lysis buffer, then suspended in 30 μL of 2×Laemmli SDS sample buffer, and treated at 100° C. for 5 minutes. The supernatant was loaded onto 10% SDS-PAGE and analyzed by immunoblot as described above.
To investigate whether IKK-α interacted with p73 in cultured mammal cells, whole cell lysates were prepared from transfected COS7 cells, then immunoprecipitated with an anti-FLAG or anti-HA antibody, and analyzed by immunoblot using an anti-p73 or anti-FLAG antibody, respectively. […] Likewise, HA-p73β was co-immunoprecipitated with FLAG-IKK-α (data not shown). […] To identify determinants of p73 participating in the interaction with IKK-α, several deletion mutants of p73 fused to GST were prepared and examined for their abilities to bind to FLAG-IKK-α by in-vitro pull-down assay. These mutants were designed on the basis of the functional domains of p73 including transactivation, DNA-binding, oligomerization, and SAM domains (FIG. 12).

p53 = p53 protein level (stabilization) by immunoblot in cotransfected COS7 cells; assay type: cell-based; conditions: COS7 cotransfection (FIG. 14, 15)
Protocol: Cells were transiently transfected with a total of 2 μg of expression plasmids. After 48 hours of the transfection, the cells were washed with ice-cold PBS and suspended in lysis buffer (pH 8.0; which contained 25 mM Tris-Cl, 137 mM sodium chloride, 1% Triton X-100, 1 mM phenylmethylsulfonyl fluoride (PMSF), and protease inhibitor mix (Roche Molecular Biochemicals)), followed by brief sonication. After centrifugation at 15000 rpm for 10 minutes, the supernatant was collected and assayed for protein concentrations by the Bradford assay (Bio-Rad). Equal amounts of lysates (protein amount: 50 μg) from the whole cells were denatured by boiling in Laemmli SDS-sample buffer, then separated on 10% SDS-polyacrylamide gel (SDS-PAGE), and transferred at room temperature for 1 hour to polyvinylidene difluoride (PVDF) membranes (Immobilon-P; Millipore) in Tris-glycine buffer containing 10% methanol. The membranes were blocked at room temperature for 1 hour with Tris-buffered saline (TBS-T) containing 5% skim milk and 0.1% Tween 20.
As previously reported, some protein kinases (e.g., c-Abl and PKCδ) that interact with p73 can stabilize p73. To confirm whether IKK-α influenced the stabilization of p73, COS7 cells were transfected with a constant amount of HA-p73α expression plasmid together with or without varying amounts of IKK-α expression plasmids and examined for HA-p73α protein levels. […]

H1299 cells = experiment: Apoptosis assay (trypan blue / Red-Gal double staining), p73α-dependent; assay type: cell-based, human; conditions: H1299, coexpression with HA-p73α, 48 hours (FIG. 25-27)
Protocol: To detect apoptosis via p73α and IKK overexpression, H1299 cells were seeded at a density of 1.5×10^4 cells/well onto a 6-well tissue culture dish. Next day, the cells were transiently transfected with 50 ng of β-galactosidase expression plasmid and 50 ng of HA-p73α expression plasmid in the presence or absence of varying amounts of IKK-α or IKK-β expression vectors (100, 200, or 400 ng). After 48 hours of the transfection, the cells were washed with ice-cold PBS and stained at room temperature for 10 minutes with 0.4% trypan blue (PBS solution). Then, the cells were washed twice with PBS, then fixed for 10 minutes in PBS containing 2.5% glutaraldehyde, 1 mM magnesium chloride, and 2 mM EGTA, and stained for 2 hours with Red-Gal (Research Organics) according to the method described in Bayon, Y. et al., Mol. Cell. Biol. 23: 1061-1074 (2003). Red-Gal was used as a marker for visualizing the transfected cells to evaluate the degree of apoptosis occurring in the transfectants. […] Results were indicated by an average of three independent transfections (each performed three times or more).
Potential effect(s) of IKK-α on p73-dependent biological functions such as the regulation of apoptosis was examined. […] After 48 hours of the transfection, the cells were subjected to double staining with trypan blue (nonviable cells) and Red-Gal (transfected cells), and the number of purple cells was scored.

B1: IKK-α: IKK-α protein, amino acid sequence SEQ ID NO: 24, expressed from plasmid; apoptosis enhancer (protein, listed as Homo sapiens)
chain: MERPPGLRPGAGGPWEMRERLGTGGFGNVCLYQHRELDLKIAIKSCRLELSTKNRERWCHEIQIMKKLNHANVVKACDVPEELNILIHDVPLLAMEYCSGGDLRKLLNKPENCCGLKESQILSLLSDIGSGIRYLHENKIIHRDLKPENIVLQDVGGKIIHKIIDLGYAKDVDQGSLCTSFVGTLQYLAPELFENKPYTATVDYWSFGTMVFECIAGYRPFLHHLQPFTWHEKIKKKDPKCIFACEEMSGEVRFSSHLPQPNSLCSLIVEPMENWLQLMLNWDPQQRGGPVDLTLKQPRCFVLMDHILNLKIVHILNMTSAKIISFLLPPDESLHSLQSRIERETGINTGSQELLSETGISLDPRKPASQCVLDGVRGCDSYMVYLFDKSKTVYEGPFASRSLSDCVNYIVQDSKIQLPIIQLRKVWAEAVHYVSGLKEDYSRLFQGQRAAMLSLLRYNANLTKMKNTLISASQQLKAKLEFFHKSIQLDLERYSEQMTYGISSEKMLKAWKEMEEKAIHYAEVGVIGYLEDQIMSLHAEIMELQKSPYGRRQGDLMESLEQRAIDLYKQLKHRPSDHSYSDSTEMVKIIVHTVQSQDRVLKELFGHLSKLLGCKQKIIDLLPKVEVALSNIKEADNTVMFMQGKRQKEIWHLLKIACTQSSARSLVGSSLEGAVTPQTSAWLPPTSAEHDHSLSCVVTPQDGETSAQMIEENLNCLGHLSTIIHEANEEQGNSMMNLDWSWLTE
For B1, the “complex formation with HA-p73α” value (p73) was “formed stable complexes”, the “stabilization of p53” value (p53) was “no detectable effect on the stabilization of FLAG-p53” and the “number of cells undergoing p73α-dependent apoptosis” value (H1299 cells) was “increased the number of cells undergoing apoptosis”.
